Consider 1 molecule from PMC7710722, “A nanobody suite for yeast scaffold nucleoporins provides details of the nuclear pore complex structure” (Nature Communications, 2020).

The target in assay [1] is T1, Sec13 fused to the Nup145C insertion blade (Saccharomyces cerevisiae S288c, UniProt Q04491).
T1 construct: Sec13, S. cerevisiae; Nup145C insertion blade, S. cerevisiae, residues 320-411 as printed; also called Sec13-Nup145C_(320–411); Sec13-Nup145C_(blade); source: E. coli LOBSTR-RIL(DE3), purified (Ni Sepharose, 3C protease, Superdex S75)
The experiment in a line: SEC; nup and nanobody incubated 30 min on ice, then Superdex S75 or S200 10/300 in 150 mM NaCl, 10 mM Tris/HCl pH 7.5, 1 mM DTT, 0.1 mM EDTA. Particulars: both partners purified. On the technique in general: Size exclusion chromatography separates by hydrodynamic size, large species first.

Assay [2] concerns the target T2, fusion construct of Nup145C-Sec13 (Saccharomyces cerevisiae S288c, UniProt P49687;Q04491).
T2 construct: Nup145C, the C-terminal product of Nup145, S. cerevisiae; named among the 'full-length nups'; Sec13, S. cerevisiae; source: E. coli
Described as above. The following applies: both partners purified.

B1: VHH-SAN6 (VHH)
VHH: QLQLVETGGGSVQAGGSLSLSCIVSGRTSTYYAMGWFRQAPGKEREFVAAINWSGSSTVYEESVKGRFTISRDNVQNTVYLQMNSLKPEDTADYYCAAAATIFIPRPDEYPYWGQGTQVTVSS
notes: source: E. coli LOBSTR-RIL(DE3), purified (Ni Sepharose, SEN-p protease, Superdex S75); not shown: 14xHis, N-terminal, cleaved; bdSUMO, N-terminal, cleaved
Take B1: the binding result in assay [1] was “no binding”; in assay [2], “binds”.
